# Data taken from patent US20060204443A1, “Methods for tumor treatment using dendrimer conjugates” (The Government of the USA as represented by the Secretary …, priority 2005, published 2006).
# Experiments:
# [1] = Quantification of contrast agent in sentinel lymph nodes (signal intensity compared with phantoms); format: in vivo, athymic nu/nu mice
# Description: In order to semi-quantify the concentration of contrast agent within each sentinel lymph node, non-tumor bearing athymic nu/nu mice (n=8) were anesthetized and injected with 0.40 μmolGd of the G6 contrast agent (40 mMGd/6400 ppm) into the mammary gland, and axial images were taken with serum phantoms containing known concentrations (2.5 and 5 mM) of G6 using the 3D-fastSPGR (repetition time/echo time 19.2/7.2 msec; inversion time 47 msec; bandwidth 31.2 kHz, flip angle 30°, 3 excitations; 16 slice encoding steps; scan time 2 minutes 25 seconds) 12, 24, 36, 48, and 60 minutes after injection.
# To validate the concentration of G6 agent, we used another method to calculate the Gd concentration in the enhanced left axillary lymph node. The consecutive MR images of 5 separate mice together with the same phantoms used above were taken with the same 3D-fSPGR protocol using 4 flip angles (10, 20, 30, and 40 degrees) at 24 min post-injection of 40 mM/20 μL G6 agent in the left mammary gland. Signal intensity of the enhanced left axillary lymph node was corrected with that in the right axillary lymph node as a non-enhanced control. Then, signal intensities obtained with different flip angles were plotted in order to calculate decreased T1 values in the left axillary lymph node due to the presence of G6 agent. Gd(III) concentrations were calculated based on the decreased T1 values in the enhanced node and the R1 relaxivity of G6 agent at this condition. Technically, multi-flip angle scans were able to be performed once an hour because of the gradient driver overheat on the MRI system. In order to calculate serial concentration of the G6 agent, this separate set of mice was used only to obtain the T1 values. The serial concentrations of G6 agent were calculated based on serial scan data under flip angle (30°) and T1 values obtained from multi-flip angle scans.
# [2] = Serum phantoms: T1-weighted MRI signal intensity vs G6 agent concentration; format: physicochemical; details: FIG. 21B
# Excerpt: In order to verify the correlation between T1-weighted MRI signal intensity and concentration of G6 agent, serum phantoms were made containing various concentrations of the G6 agent with a bovine serum (GIBCO, Invitrogen Co., Carlsbad, Calif.) and MR images were obtained with the same imaging technique as shown above. Three sets of phantoms, high ([…]-40 mMGd), intermediate (0.1-1 mMGd) and low (0.01-0.1 mMGd) concentrations, were studied. A sample of Gd-DTPA was used as an internal control.
substance,measurement,setting,value
PAMAM-G6D-(Gd-1B4M)256 dendrimer conjugate,Time of maximum concentration in the axillary lymph node,[1]; five mice,24 minutes post-injection in two of five mice and 36 minutes post-injection in three of five mice
same,Retention in the left axillary lymph node (FIG. 23),"[1]; mouse, in vivo",maintained in high concentration in the lymph node for up to 60 minutes post-injection
same,Accumulation in the lateral thoracic lymph nodes,[1]; number of mice,three of five mice
same,T1 relaxivity,[2],much higher T1 relaxivity than Gd-DTPA
